Experimental data reported in the supplement of paper PMC10567573.

B1: ZNF263 (parent)
chain: HLTRHQRTHTGEKPYKCTLCGENF

Variants of: B1
Assay: protein stability index of a GFP-peptide fusion (GPS, HEK-293T) (PSI 1-6); higher = more stable
Settings: c terminus: a fixed tail appended
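Note: lentivirally expressed fusions sorted by FACS into six bins by GFP to DsRed ratio, PSI derived from sequencing read proportions per bin multiplied by bin number.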

Row | Variant | protein stability index
1 | HLTRHQRTHTGEKPYDCTLCGENF [K16D] | 3.74
2 | HLTRHQRTHTGEKPYQCTLCGENF [K16Q] | 3.17
3 | HLTRHQRTHTGEKPYRCTLCGENF [K16R] | 2.87
4 | HLTRHQRTHTGEKPYWCTLCGENF [K16W] | 2.78
5 | HLTRHQRTHTGEKPYGCTLCGENF [K16G] | 3.19
6 | HLTRHQRTHTGEKPYFCTLCGENF [K16F] | 2.7
7 | HLTRHQRTHTGEKPYPCTLCGENF [K16P] | 3.32
8 | HLTRHQRTHTGEKPYECTLCGENF [K16E] | 3.82
9 | HLTRHQRTHTGEKPYYCTLCGENF [K16Y] | 2.52
10 | HLTRHQRTHTGEKPYSCTLCGENF [K16S] | 3.19
11 | HLTRHQRTHTGEKPYVCTLCGENF [K16V] | 2.3
12 | HLGRHQRTHTGEKPYKCTLCGENF [T3G] | 2.3
13 | HLCRHQRTHTGEKPYKCTLCGENF [T3C] | 3.47
14 | HLLRHQRTHTGEKPYKCTLCGENF [T3L] | 2.1
15 | HLTRHQRTHTGEKPYKCTLLGENF [C20L] | 2.61
16 | HLTRHQRTHTGEKPYKCTLMGENF [C20M] | 2.93
17 | HLTRHQRTHTGEKPYKCTLAGENF [C20A] | 2.89
18 | HLTRHQRTHTGEKPYKCTLRGENF [C20R] | 3.03
19 | HLTRHQRTHTGEKPSKCTLCGENF [Y15S] | 3.48
20 | HLTRHQRTHTGEKPPKCTLCGENF [Y15P] | 3.1
21 | HLTRHQRTHTGEKPVKCTLCGENF [Y15V] | 3.22
22 | HLTRHQRTHTGEKPMKCTLCGENF [Y15M] | 3.18
23 | HLTRHQRTHTGEKPFKCTLCGENF [Y15F] | 3.31
24 | HLTRHQRTHTGEKPNKCTLCGENF [Y15N] | 3.29

Row | Variant | protein stability index
25 | HLTRHQRTHTGEKPKKCTLCGENF [Y15K] | 3.11
26 | HLTRHQRTHTGEKPRKCTLCGENF [Y15R] | 2.93
27 | HLTRHQRTETGEKPYKCTLCGENF [H9E] | 3.41
28 | HLTRHQRTGTGEKPYKCTLCGENF [H9G] | 3.04
29 | HLTRHQRTFTGEKPYKCTLCGENF [H9F] | 2.22
30 | HLTRHQRTQTGEKPYKCTLCGENF [H9Q] | 2.67
31 | HLTRHQRTDTGEKPYKCTLCGENF [H9D] | 2.83
32 | HLTRHQRTCTGEKPYKCTLCGENF [H9C] | 2.74
33 | HLTRHQRTPTGEKPYKCTLCGENF [H9P] | 2.77
34 | HLTRHQRTHTGEKPYKCTPCGENF [L19P] | 2.7
35 | HLTRHQRTHTGEKPYKCTYCGENF [L19Y] | 2.39
36 | HLTRHQRTHTGEKPYKCTICGENF [L19I] | 3.15
37 | HLTRHQRTHTGEKPYKCTECGENF [L19E] | 3.36
38 | HLTRHQRTHTGEKPYKCTWCGENF [L19W] | 2.75
39 | HLTRHQLTHTGEKPYKCTLCGENF [R7L] | 2.97
40 | HLTRHQWTHTGEKPYKCTLCGENF [R7W] | 2.12
41 | HLTRHQNTHTGEKPYKCTLCGENF [R7N] | 3.51
42 | HLTRHQATHTGEKPYKCTLCGENF [R7A] | 2.94
43 | HLTRHQHTHTGEKPYKCTLCGENF [R7H] | 4.64
44 | HLTRHQDTHTGEKPYKCTLCGENF [R7D] | 3.2
45 | HLTRHQCTHTGEKPYKCTLCGENF [R7C] | 4.78
46 | HLTRHQFTHTGEKPYKCTLCGENF [R7F] | 2.49
47 | HRTRHQRTHTGEKPYKCTLCGENF [L2R] | 2.79
48 | HNTRHQRTHTGEKPYKCTLCGENF [L2N] | 3.73

Row | Variant | protein stability index
49 | HSTRHQRTHTGEKPYKCTLCGENF [L2S] | 3.8
50 | HCTRHQRTHTGEKPYKCTLCGENF [L2C] | 4.73
51 | HGTRHQRTHTGEKPYKCTLCGENF [L2G] | 3.51
52 | HATRHQRTHTGEKPYKCTLCGENF [L2A] | 3.06
53 | HWTRHQRTHTGEKPYKCTLCGENF [L2W] | 2.71
54 | HPTRHQRTHTGEKPYKCTLCGENF [L2P] | 3.57
55 | HVTRHQRTHTGEKPYKCTLCGENF [L2V] | 3.39
56 | HDTRHQRTHTGEKPYKCTLCGENF [L2D] | 4.16
57 | HLTRHQRTHTGEKPYKCTLCGENE [F24E] | 4.08
58 | HLTRHQRTHTGEKPYKCTLCGENM [F24M] | 3.58
59 | HLTRHQRTHTGEKPYKCTLCGENW [F24W] | 3.08
60 | HLTRHQRTHTGEKPYKCTLCGENA [F24A] | 4.22
61 | HLTRHQRTHTGEKPYKCTLCGENR [F24R] | 3.13
62 | HLTRHQRTHTGEKPYKCTLCGENG [F24G] | 3.67
63 | HLTRHQRTHTGEKPYKCTLCGENH [F24H] | 3.46
64 | HLTRHHRTHTGEKPYKCTLCGENF [Q6H] | 3.28
65 | HLTRHRRTHTGEKPYKCTLCGENF [Q6R] | 3.19
66 | HLTRHWRTHTGEKPYKCTLCGENF [Q6W] | 2.04
67 | HLTRHVRTHTGEKPYKCTLCGENF [Q6V] | 2.29
68 | HLTRHLRTHTGEKPYKCTLCGENF [Q6L] | 2.61
69 | HLTRHCRTHTGEKPYKCTLCGENF [Q6C] | 3.36
70 | HLTRHARTHTGEKPYKCTLCGENF [Q6A] | 2.93
71 | HLTRHQRTHTKEKPYKCTLCGENF [G11K] | 3.06
72 | HLTRHQRTHTREKPYKCTLCGENF [G11R] | 2.94

Row | Variant | protein stability index
73 | HLTRHQRTHTQEKPYKCTLCGENF [G11Q] | 3.55
74 | HLTRHQRTHTWEKPYKCTLCGENF [G11W] | 2.07
75 | HLTRHQRTHTVEKPYKCTLCGENF [G11V] | 2.38
76 | HLTRHQRTHTTEKPYKCTLCGENF [G11T] | 3.01
77 | HLTRHQRTHTFEKPYKCTLCGENF [G11F] | 2.72
78 | HLTRHQRTHTHEKPYKCTLCGENF [G11H] | 2.83
79 | HLTRHQRIHTGEKPYKCTLCGENF [T8I] | 3.1
80 | HLTRHQRAHTGEKPYKCTLCGENF [T8A] | 3.44
81 | HLTRHQRPHTGEKPYKCTLCGENF [T8P] | 2.54
82 | HLTRHQRRHTGEKPYKCTLCGENF [T8R] | 3.49
83 | HLTRHQRMHTGEKPYKCTLCGENF [T8M] | 2.5
84 | HLTIHQRTHTGEKPYKCTLCGENF [R4I] | 2.61
85 | HLTTHQRTHTGEKPYKCTLCGENF [R4T] | 3.1
86 | HLTAHQRTHTGEKPYKCTLCGENF [R4A] | 3.43
87 | HLTMHQRTHTGEKPYKCTLCGENF [R4M] | 2.83
88 | HLTLHQRTHTGEKPYKCTLCGENF [R4L] | 3.22
89 | HLTDHQRTHTGEKPYKCTLCGENF [R4D] | 4.07
90 | HLTKHQRTHTGEKPYKCTLCGENF [R4K] | 3.47
91 | HLTCHQRTHTGEKPYKCTLCGENF [R4C] | 3.67
92 | HLTHHQRTHTGEKPYKCTLCGENF [R4H] | 3.53
93 | HLTNHQRTHTGEKPYKCTLCGENF [R4N] | 3.09
94 | HLTRHQRTHTGEKRYKCTLCGENF [P14R] | 2.9
